Patent US20220356230A1 (published 2022)

Legend:
Assay in all cases: Luminex bead binding, antigen on microspheres, antibody supernatant
[1] = target: T1, MERS-CoV (SARS-CoV-2) Spike Protein (ECD, aa 1-1297, His Tag) (Sino 40069-[change]) (MERS-CoV, UniProt K9N5Q8 18-1297)
T1 sequence: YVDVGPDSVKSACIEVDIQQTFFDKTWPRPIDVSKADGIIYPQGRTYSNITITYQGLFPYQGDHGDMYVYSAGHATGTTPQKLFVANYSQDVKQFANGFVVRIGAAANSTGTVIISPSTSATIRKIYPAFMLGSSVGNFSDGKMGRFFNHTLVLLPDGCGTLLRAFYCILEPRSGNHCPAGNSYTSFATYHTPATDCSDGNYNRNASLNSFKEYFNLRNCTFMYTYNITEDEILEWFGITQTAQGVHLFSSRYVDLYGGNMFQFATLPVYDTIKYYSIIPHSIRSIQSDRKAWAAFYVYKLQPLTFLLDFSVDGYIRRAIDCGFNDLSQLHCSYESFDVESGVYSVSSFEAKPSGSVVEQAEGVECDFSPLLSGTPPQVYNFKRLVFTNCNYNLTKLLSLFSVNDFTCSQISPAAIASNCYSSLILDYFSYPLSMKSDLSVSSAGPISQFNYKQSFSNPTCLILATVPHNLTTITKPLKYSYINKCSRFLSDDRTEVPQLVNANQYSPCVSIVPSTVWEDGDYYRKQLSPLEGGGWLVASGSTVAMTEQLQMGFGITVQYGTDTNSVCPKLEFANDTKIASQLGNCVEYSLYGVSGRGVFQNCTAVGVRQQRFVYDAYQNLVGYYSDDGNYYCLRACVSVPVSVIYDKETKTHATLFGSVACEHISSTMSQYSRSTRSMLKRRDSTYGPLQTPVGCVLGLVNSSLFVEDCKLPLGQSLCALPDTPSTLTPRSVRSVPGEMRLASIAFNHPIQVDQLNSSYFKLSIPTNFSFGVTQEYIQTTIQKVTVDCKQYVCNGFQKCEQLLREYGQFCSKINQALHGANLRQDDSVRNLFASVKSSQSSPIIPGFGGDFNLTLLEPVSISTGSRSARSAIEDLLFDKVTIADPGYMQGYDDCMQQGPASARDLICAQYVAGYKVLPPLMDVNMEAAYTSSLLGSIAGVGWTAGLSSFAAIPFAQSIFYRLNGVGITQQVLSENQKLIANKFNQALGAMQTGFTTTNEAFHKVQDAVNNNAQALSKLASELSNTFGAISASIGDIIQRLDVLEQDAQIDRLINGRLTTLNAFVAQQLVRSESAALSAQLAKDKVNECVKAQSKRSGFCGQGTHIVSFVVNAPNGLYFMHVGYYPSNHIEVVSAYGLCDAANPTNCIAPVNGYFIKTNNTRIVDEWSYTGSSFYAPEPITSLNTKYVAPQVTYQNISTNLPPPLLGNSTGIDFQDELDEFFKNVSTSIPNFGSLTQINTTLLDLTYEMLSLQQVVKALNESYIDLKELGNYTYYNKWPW

[2] = target: T2, MERS-CoV (SARS-CoV-2) Spike Protein S2 (aa 726-1296, His Tag) (Sino 40070-[change]) (MERS-CoV, UniProt K9N5Q8 726-1296)
T2 sequence: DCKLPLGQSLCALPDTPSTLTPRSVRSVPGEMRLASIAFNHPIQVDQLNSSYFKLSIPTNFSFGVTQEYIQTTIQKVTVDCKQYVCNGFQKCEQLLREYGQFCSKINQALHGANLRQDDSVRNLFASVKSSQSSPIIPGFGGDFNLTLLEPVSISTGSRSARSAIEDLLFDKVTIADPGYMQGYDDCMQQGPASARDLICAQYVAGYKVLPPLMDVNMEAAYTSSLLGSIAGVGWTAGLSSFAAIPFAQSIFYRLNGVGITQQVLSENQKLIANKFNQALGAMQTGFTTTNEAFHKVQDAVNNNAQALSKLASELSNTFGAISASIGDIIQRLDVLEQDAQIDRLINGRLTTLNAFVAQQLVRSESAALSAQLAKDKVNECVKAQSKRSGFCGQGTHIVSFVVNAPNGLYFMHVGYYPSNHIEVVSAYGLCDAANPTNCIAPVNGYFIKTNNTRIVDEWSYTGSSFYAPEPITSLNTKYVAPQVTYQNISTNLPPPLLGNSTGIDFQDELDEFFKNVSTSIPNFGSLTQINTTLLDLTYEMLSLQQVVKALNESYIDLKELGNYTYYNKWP

[3] = target: Human SARS Coronavirus Spike S1 Subunit Protein (His Tag) (Sino 40150-V08B1) (Human SARS Coronavirus, UniProt P59594 14-667)

B1: mAb10987 (antibody, V domains shown)
VH: QVQLVESGGGVVQPGRSLRLSCAASGFTFSNYAMYWVRQAPGKGLEWVAVISYDGSNKYYADSVKGRFTISRDNSKNTLYLQMNSLRTEDTAVYYCASGSDYGDYLLVYWGQGTLVTVSS
VL: QSALTQPASVSGSPGQSITISCTGTSSDVGGYNYVSWYQQHPGKAPKLMIYDVSKRPSGVSNRFSGSKSGNTASLTISGLQSEDEADYYCNSLTSISTWVFGGGTKLTVLG
Which results are given for B1?
MFI [1]: 15 MFI; MFI [2]: 23 MFI

B2: mAb10989 (antibody, V domains shown)
VH: QVQLVQSGAEVKKPGASVKVSCKASGYIFTGYYMHWVRQAPGQGLEWMGWINPNSGGANYAQKFQGRVTLTRDTSITTVYMELSRLRFDDTAVYYCARGSRYDWNQNNWFDPWGQGTLVTVSS
VL: QSALTQPASVSGSPGQSITISCTGTSSDVGTYNYVSWYQQHPGKAPKLMIFDVSNRPSGVSDRFSGSKSGNTASLTISGLQAEDEADYYCSSFTTSSTVVFGGGTKLTVLG
With B2 as the binder, how does the MFI [3] read?
The MFI was 21 MFI.

B3: mAb10969 (antibody, V domains shown)
VH: QVQLVESGGGVVQPGRSLRLSCAASGFTFSSYAMHWVRQAPGKGLEWVAVISYDGSNKYYADSVKGRFTISRDNSKNTLYLQMNSLRAEDTAVYYCARDGRTITMVRGVIDDAFDIWGQGTMVTVSS
VL: not shown
What does the source list for B3?
MFI [3]: 20 MFI; MFI [1]: 16 MFI; MFI [2]: 20 MFI

B4: mAb10970 (antibody, V domains shown)
VH: EVQLVESGGGLVQPGGSLRLSCAASGFTVSSNYMSWVRQAPGKGLEWVSVIYSGGSTYYADSVKGRFTISRDNSKNTLYLQMNRLRADDTAVYYCVRDPVGRYYYGMDVWGQGTTVTVSS
VL: not shown
For B4, which MFI [1] is on record?
The MFI was 14 MFI.

What about the MFI [2] of the same binder?
Its MFI is 16 MFI.

B5: mAb10971 (antibody, V domains shown)
VH: EVQLVESGGGLIQPGGSLRLSCAASGVTVSSNYMSWVRQAPGKGLEWVSVIYSGGSTFYSDSVKGRFSISRDNSKNTLYLQMNSLRAEDTAVYYCARDLYYYGMDVWGQGTTVTVSS
VL: DIQLTQSPSFLSASVGDRVTITCRASQGISTYLAWYQQKPGKAPKLLIYAASTLQSGVPSRFSGSGSGTEFTLTISSLQPEDFATYYCQQLDSYPGLTFGGGTKVEIKR
For B5, which MFI [3] is on record?
Its MFI is 20 MFI.

What about the MFI [1] of the same binder?
The MFI was 15 MFI.

What about the MFI [2] of the same binder?
Its MFI is 13 MFI.

B6: mAb10964 (antibody, V domains shown)
VH: QVQLQESGPGLVKPSETLSLTCTVSGGSINNYYWIWIRQPPGKGLEWIGYIYHSGSTNYNPSLKSRVTISVDTSKNQFSLKVSSVTAADTAVYYCANMVRGVYEDDYWGQGTLVTVSS
VL: DIQMTQSPSSLSASVGDRVTITCRASQSISNYLNWYQQKPGKAPKLLIFAASSLRSGVPSRFSGSGSGTDFTLTISSLHPEDFATYYCQQNYNTPLTFGPGTKVDIKR
For B6, which MFI [3] is on record?
The MFI was 5190 MFI.

And the MFI [1]?
The MFI was 15 MFI.

B7: mAb10965 (antibody, V domains shown)
VH: EVQLVESGGGLIQPGGSLRLSCAASVFTVSYNYMSWVRQAPGKGLEWVSVIYSGGSTYYADSVKGRFTISRDNSKNTLYLQMNSLRAEDTAVYYCARALPGWGGSFEYFDYWGQGTLVTVSS
VL: not shown
Which MFI [3] does the source give for B7 here?
The MFI was 16 MFI.

B8: mAb10966 (antibody, V domains shown)
VH: EVQLVESGGGLVQPGGSLRLSCAASGLTVSSNYMSWVRQAPGKGLEWVSVIYSGGSTFYADSVKGRFTISRDNSKNTLYLQMNSLRPEDTAVYYCAREGRIAATGYGMDVWGQGTTVTVSS
VL: not shown
Which results are given for B8?
MFI [3]: 20 MFI; MFI [1]: 16 MFI; MFI [2]: 16 MFI
